One substance from patent US20160289342A1 can be followed below.

Test [1] addresses recombinant human soluble BAFF (human) (UniProt Q9Y275). Kind of test: flow cytometry on JY cells, simultaneous binding assay, 5000 ng biotinylated BAFF, BAFF channel FL-2 (PE). A general note: A flow cytometer gives signals particle by particle.
Test [2] concerns the target human CD20 (human) (UniProt P11836). Put plainly: flow cytometry on JY cells, simultaneous binding assay, 1000 ng biotinylated BAFF, CD20 channel FL-1.
Test [3] shares this target. Put plainly: flow cytometry on JY cells, simultaneous binding assay, 5000 ng biotinylated BAFF, CD20 channel FL-1.
The target in test [4] is recombinant human soluble BAFF (human) (UniProt Q9Y275). Put plainly: flow cytometry on JY cells, simultaneous binding assay, 200 ng biotinylated BAFF, BAFF channel FL-2 (PE).
Sequence of recombinant human soluble BAFF (human) (Q9Y275 134-285 limits assumed): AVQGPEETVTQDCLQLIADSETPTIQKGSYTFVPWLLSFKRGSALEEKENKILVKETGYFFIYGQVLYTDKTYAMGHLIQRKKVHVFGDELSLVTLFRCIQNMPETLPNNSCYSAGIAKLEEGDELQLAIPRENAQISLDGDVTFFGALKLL
Test [5] has the same target. Kind of test: flow cytometry on JY cells, simultaneous binding assay, 1000 ng biotinylated BAFF, BAFF channel FL-2 (PE).
For test [6], the target named is human CD20 (human) (UniProt P11836). Kind of test: flow cytometry on JY cells, simultaneous binding assay, 0.32 ng biotinylated BAFF, CD20 channel FL-1.
Sequence of human CD20 (human) (P11836 whole entry): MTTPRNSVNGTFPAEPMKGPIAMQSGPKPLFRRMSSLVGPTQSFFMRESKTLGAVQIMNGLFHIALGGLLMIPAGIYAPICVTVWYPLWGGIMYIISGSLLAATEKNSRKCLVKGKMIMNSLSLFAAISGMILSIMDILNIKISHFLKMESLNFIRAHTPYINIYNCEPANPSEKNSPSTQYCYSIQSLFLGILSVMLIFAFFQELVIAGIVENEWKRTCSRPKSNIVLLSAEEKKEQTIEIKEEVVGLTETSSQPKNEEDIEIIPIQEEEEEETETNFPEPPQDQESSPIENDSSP
For test [7] the target is unchanged. Put plainly: flow cytometry on JY cells, simultaneous binding assay, 200 ng biotinylated BAFF, CD20 channel FL-1.
Test [8] concerns the target recombinant human soluble BAFF (human) (UniProt Q9Y275). Put plainly: flow cytometry on JY cells, simultaneous binding assay, 0.32 ng biotinylated BAFF, BAFF channel FL-2 (PE).

In the case of control human IgG1 antibody, the MFI was 1.26 MFI in test [1]; 9.14 MFI in the test with human CD20 (human) [2]; 8.5 MFI with human CD20 (human) [3]; 1.43 MFI in test [4]; 1.3 MFI in test [5]; 9.8 MFI with human CD20 (human) [6]. Besides, the MFI with human CD20 (human) [7] was 18 MFI; in test [8], 1.31 MFI.
